# From US20260234276A1 (DOMAIN THERAPEUTICS, published 2026)
# Values joined by “and” are separate entries in the source; they are usually repeats but may differ in a detail not shown here. Equal values may be shown once.
# Columns and labels:
# [1] = target: T1, human CCR8 (human, UniProt P51685 1-355); assay: cell-based or functional assay
# [2] = target: CCR8 SNAP-tag (human, UniProt P51685 1-355, SNAP-tag labelled with Lumi4-Terbium); assay: cell-based or functional assay
# [3] = target: pm8 (human, sulfated tyrosines at Y15, Y16 and Y17); assay: ELISA on coated peptide [cont.]
# Method in brief: (§1)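 Anti-CCR8 mAbs tested at 1 μg/mL and then diluted 1/10 on CCR8-related peptides coated at 500 ng/mL in carbonate/bicarbonate buffer, 90 min at room temperature. Bound antibody developed with TMB for 15 min; optical density read as mAb reactivity.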
# [4] = target: pm2 (human, sulfated tyrosine(s) among Tyr 15, Tyr 16, Tyr 17; marked only by underlining, lost in the text); assay: ELISA on coated peptide [cont.]
# Method in brief: as §1
# [5] = target: T2, pm4 (human, sulfated tyrosine(s) among Tyr 15, Tyr 16, Tyr 17; marked only by underlining, lost in the text); assay: ELISA on coated peptide [cont.]
# Method in brief: as §1
# [6] = target: T3, pm1 (human, sulfated tyrosine(s) among Tyr 15, Tyr 16, Tyr 17; marked only by underlining, lost in the text); assay: ELISA on coated peptide [cont.]
# Method in brief: as §1
# [7] = target: pm5 (human, sulfated tyrosines at Y15 and Y17); assay: ELISA on coated peptide [cont.]
# Method in brief: as §1
# [8] = target: pm3 (human, sulfated tyrosine at Y17); assay: ELISA on coated peptide [cont.]
# Method in brief: as §1
# [9] = target: T4, pwt1 (human); assay: ELISA on coated peptide [cont.]
# T4 construct: also called unmodified peptide
# Method in brief: as §1
# [10] = target: pm6 (human, sulfated tyrosines at Y16 and Y17); assay: ELISA on coated peptide [cont.]
# Method in brief: as §1
# [11] = target: T1, human CCR8; assay: flow cytometry, HUT78 cells (native CCR8)
# Description: The same staining protocol was applied on human CCR8 transfected CHO cell line versus wild type CHO cell line, cutaneous T cell lymphoma HUT78 cell line and human activated T cell model.
# (§2) Briefly, 1·10⁵ cells per well in a 96 well plate were incubated with a dilution of unconjugated anti-CCR8 mAb at 10 μg/mL then diluted at 1/3.33, 4 dilution points (during 30 min at 4° C.). […] To determine EC50 value, 8 concentrations of anti-CCR8 mAb were tested. Unbound antibodies were washed away with PBS (Invitrogen by Thermofisher Scientific, Illkirch-Graffenstaden, France) supplemented by 2% Fetal Bovine Serum (Invitrogen by Thermofisher Scientific, Illkirch-Graffenstaden, France) and 2 mM EDTA (Invitrogen by Thermofisher Scientific, Illkirch-Graffenstaden, France). Subsequently, cells are centrifuged (5 min at 400 g) and bound antibody is detected with F(ab′)₂-Goat anti-Mouse IgG (H+L) Cross-Adsorbed Secondary Antibody, Alexa Fluor 488 (dilution 1/500) (Invitrogen by Thermofisher Scientific, Illkirch-Graffenstaden, France) or with F(ab′)₂-Goat anti-Human IgG Fc Secondary Antibody, PE (Invitrogen by Thermofisher Scientific, Illkirch-Graffenstaden, France) (dilution 1/1000) at 4° C. for 30 min. Detection reagent is washed away and cells are centrifuged (5 min at 400 g) and resuspended in 30 μL PBS. Bound detection antibody is quantified on a MacsQuant16 (Miltenyi, Gladbach, Germany) (B1 or B2 channel, 5000 events per acquisition).
# [12] = target: T1, human CCR8; assay: cell-based or functional assay; remark: listed apart in the source
# [13] = target: T1, human CCR8; assay: competition HTRF on HEK-293 cells with hCCR8; blocked ligand CCL1-AF647 [cont.]
# [14] = target: T1, human CCR8; assay: cell-based or functional assay; remark: listed apart in the source
# [15] = target: T1, human CCR8; assay: flow cytometry, human activated T cells
# Description: as §2
# (§3) Binding characteristics of anti-CCR8 mAb cellular reactivity was further investigated by testing their binding to activated T cells.
# [16] = target: T2, pm4; assay: ELISA on coated peptide
# Description: (§4) The specific binding properties of antibodies were evaluated by ELISA with coated CCR8 related peptides (500 ng/mL) in carbonate/bicarbonate buffer. Different peptides were used as described in Table 1 (see Example 1). Each anti-CCR8 mAb was tested at 1 μg/mL then diluted at 1/10. After an incubation at room temperature during 90 min, unbound mAbs were removed by washings. […] After washings, 3,3′,5,5′-tetramethylbenzidine (TMB) (Interchim, Montlugon, France) was added for 15 min. Then the optical density (OD) was determined by using a multiplate reader (Tecan, Lyon, France) and correlated with mAb reactivity on the panel of coated peptides.
# [17] = target: T3, pm1; assay: ELISA on coated peptide
# Description: as §4
# [18] = target: T1, human CCR8; assay: flow cytometry, human activated T cells pre-incubated with 200 nM hCCL1
# Description: as §2, §3
# [19] = target: T1, human CCR8; assay: flow cytometry, hCCR8 transfected CHOK1 cells
# [20] = target: T1, human CCR8; assay: competition flow cytometry on hCCR8 transfected CHO cells; blocked ligand CCL1-AF647
# Chain of pm3 (human, sulfated tyrosine at Y17) (peptide, as listed by the source): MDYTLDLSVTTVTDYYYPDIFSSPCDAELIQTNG
# T3 sequence (peptide, as listed by the source): as above
# Chain of pm6 (human, sulfated tyrosines at Y16 and Y17) (peptide, as listed by the source): as above
# Chain of pm5 (human, sulfated tyrosines at Y15 and Y17) (peptide, as listed by the source): as above
# T2 sequence (peptide, as listed by the source): as above
# Chain of pm8 (human, sulfated tyrosines at Y15, Y16 and Y17) (peptide, as listed by the source): as above
# T4 sequence (peptide, as listed by the source): as above
# Chain of pm2 (human, sulfated tyrosine(s) among Tyr 15, Tyr 16, Tyr 17; marked only by underlining, lost in the text) (peptide, as listed by the source): as above
"IC50 (Gi2 BRET, pH 6.5) [1]","IC50 (Gi2 BRET, pH 7.4) [1]",% of internalization at 1 µg/ml mAb (HTRF) [2] [%],% of internalization at 10 µg/ml mAb (HTRF) [2] [%],binding result [3],binding result [7],binding result [8],binding result [10],% of labelled cells [11] [%],"hCCL1 (100 nM) residual response, Protocol #2, mAb 0.08 µg/mL [12] [%]","hCCL1 (100 nM) residual response, Protocol #2, mAb 0.4 µg/mL [12] [%]","hCCL1 (100 nM) residual response, Protocol #2, mAb 10 µg/mL [12] [%]","hCCL1 (100 nM) residual response, Protocol #3, mAb 0.05 µg/mL [12] [%]","hCCL1 (100 nM) residual response, Protocol #3, mAb 0.5 µg/mL [12] [%]","hCCL1 (100 nM) residual response, Protocol #3, mAb 5 µg/mL [12] [%]",IC50 (read off the curve) [13] [mg/L],other results,Binder
0.011 µg/ml and 0.072 nM,0.022 µg/ml and 0.148 nM,44,29,binds,binds,binds,binds,96,67,55,32,86,60,42,~0.03,"binding result [4]: binds; binding result [5]: binds; binding result [6]: binds; binding result [9]: binds; ADCC % Max lysis, NK cells Donor 3 [14]: 15%; ADCC % Max lysis, NK cells Donor 4 [14]: 16%; ADCC EC50, NK cells Donor 3 [14]: 0.505 nM; ADCC EC50, NK cells Donor 4 [14]: 0.573 nM","3-80 (antibody, human IgG1, kappa, V domains shown, humanized, human IgG1 kappa) VH: QVQLVQSGPEVVKPGASVKVSCKTSGYTFTEYTIHWVRQAPGQSLEWVGGINPNNGNTRYDQKFQGRVTITRDKSASTAYMELRSLTSEDTAVYYCARVARSSGSGPYAMDYWGQGTTVTVSS VL: DVVMTQSPLSLPVTLGDQASISCRCSQSLLHTNGDTYLHWYLQRPGQSPRLLIYKVSNRFSGVPDRFSGSGSGTDFTLKISRVEAEDVGVYFCSQSTHVPYTFGGGTKVEIKR"
0.077 µg/ml and 0.514 nM,0.068 µg/ml and 0.452 nM,139,52,binds,binds,binds,binds,97,94,77,31,110,76,33,~0.2,% of labelled cells [15]: 92%; binding result [16]: binds; binding result [17]: binds; % of labelled cells [18]: 92%,"3-79 (antibody, human IgG1, kappa, V domains shown, humanized, human IgG1 kappa) VH: EVQLLESGGGLVQPGGSLRLSCAASGFTFNAYAMNWVRQAPGKGLEWVARIRSKSNDYATYYGDSVKGRFTISRDNSKNTLYLQMNSLRAEDTAVYYCVRGREAYYRYDGGYYAMDVWGQGTTVTVSS VL: DIVMTQSPLSLPVTPGEPASISCRSSKSLLHSNGNTYLYWFLQKPGQSPQLLIYRVSNLASGVPDRFSGSGSGTDFTLKISRVEAEDVGVYYCMQHREYPFTFGQGTKLEIKR"
–,–,126,111,–,–,–,–,–,–,–,–,–,–,–,–,% positive cells [19]: 75.1%; MFI fold change to isotype ctrl [19]: 8.7 fold; IC50 (read off the curve) [20]: ~0.7 mg/L,"Ref #1 (antibody, human IgG1, V domains shown, benchmark from WO 2021/260210; human IgG1, produced in CHO; also called TPP-21360) VH: EVQLLESGGGLVQPGGSLRLSCAASGFTFSSYGMHWVRQAPGKGLEWVSAINWNGGSTGYADSVKGRFTISRDNSKNTLYLQMNSLRAEDTAVYYCARGHHSGYDGRFFDYWGQGTLVTVSS VL: QSVLTQPPSVSGAPGQRVTISCTGSSSNIGAGYNVHWYQQLPGTAPKLLIYTNNRRPSGVPDRFSGSKSGTSASLAISGLRSEDEADYYCAAWDASLSGWVFGGGTKLTVL"
